The values below come from patent publication US20080207488A1, “Method for Detecting Peptides Comprising a Cross-B Structure” (priority 2005, published 2008).

Peptide text beside a SMILES is read from it.

The target in data set [1] is T1, LRP cl-IV binding to BSA-AGE (Bos taurus, UniProt P02769).
T1 construct: made in house; host or cells: LRP cl-IV: HEK293E/S culture supernatant, 50 times diluted; BSA-AGE: glycated in house and coated
Put plainly: ELISA, interference with LRP cl-IV binding to BSA-AGE. The note with it: concentration series, 50 times diluted LRP cl-IV medium. The arrangement: species or system human. The protocol: To test whether amyloid-like crossbeta structure binding compounds tPA, Congo red, Thioflavin T and Thioflavin S interfere with LRP cl-IV binding to BSA-AGE, concentration series of the potential inhibitory amyloid binding moieties were tested in the presence of 50 times diluted medium containing LRP cl-IV. The following inhibitors were used: tPA, Congo red, Thioflavin T (ThT) and Thioflavin S (ThS). As a control to tPA, K2P tPA, which lacks the amyloid-like misfolded protein binding finger domain, was included in the analyses. The influence of tPA and K2P tPA was tested in the presence of 10 mM ε-amino caproic acid to avoid binding of the kringle2 domain of tPA and K2P tPA to lysine- and arginine residues. Binding buffer and K2P tPA served as negative controls in these inhibition studies. The concentration series was measured in triplicate, the values averaged and standard deviations calculated. Background signals obtained with buffer-coated wells were subtracted. Signals obtained with binding of LRP cluster IV to BSA-AGE was set arbitrarily to a reference binding of 100% and signals obtained with the concentration series of misfolded protein binding moieties and K2P tPA were calculated based on this set reference.
On the technique in general: In an ELISA, binding on a coated surface is turned into a signal by an enzyme label.

The next data set deals with T2, factor XII (Homo sapiens, UniProt P00748).
T2 construct: purchased Calbiochem, EMD Biosciences #233490
T2 sequence (P00748 20-615): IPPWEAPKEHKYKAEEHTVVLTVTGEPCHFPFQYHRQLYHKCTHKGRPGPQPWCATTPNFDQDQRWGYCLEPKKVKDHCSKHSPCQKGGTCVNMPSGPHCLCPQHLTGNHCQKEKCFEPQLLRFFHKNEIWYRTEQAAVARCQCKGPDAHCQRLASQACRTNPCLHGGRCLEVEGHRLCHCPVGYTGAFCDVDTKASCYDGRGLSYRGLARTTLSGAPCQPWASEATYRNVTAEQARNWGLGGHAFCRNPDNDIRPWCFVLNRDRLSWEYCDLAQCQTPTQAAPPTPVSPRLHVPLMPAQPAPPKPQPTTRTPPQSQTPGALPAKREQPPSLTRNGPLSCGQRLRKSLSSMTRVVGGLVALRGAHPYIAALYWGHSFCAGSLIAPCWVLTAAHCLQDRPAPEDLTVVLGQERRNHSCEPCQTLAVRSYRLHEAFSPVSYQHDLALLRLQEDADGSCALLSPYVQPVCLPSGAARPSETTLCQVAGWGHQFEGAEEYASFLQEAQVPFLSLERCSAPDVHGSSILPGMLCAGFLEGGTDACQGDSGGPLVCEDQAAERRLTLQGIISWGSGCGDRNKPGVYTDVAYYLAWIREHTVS
Put plainly: Chromogenic factor XII/prekallikrein activation assay (Chromozym-PK). It is filed as biochemical. To be noted: peptide aggregates and surfaces. The protocol: (§1) Plasmin (Pls) activity was assayed as described^7. Peptides and proteins that were tested for their stimulatory ability were regularly used at 100 μg ml^−1. […] Chromogenic substrate S-2251 (Chromogenix, Instrumentation Laboratory SpA, Milano, Italy) was used to measure Pls activity. Conversion of zymogen factor XII (#233490, Calbiochem, EMD Biosciences, Inc., San Diego, Calif.) to proteolytically active factor XII (factor XIIa) was assayed by measurement of the conversion of chromogenic substrate Chromozym-PK (Roche Diagnostics, Almere, The Netherlands) by kallikrein. Chromozym-PK was used at a concentration of 0.3 mM. Factor XII, human plasma prekallikrein (#529583, Calbiochem) and human plasma cofactor high-molecular weight kininogen (#422686, Calbiochem) were used at concentrations of 1 μg ml^−1. […] Assays were performed using microtiter plates (Costar, Cambridge, Mass., USA). Peptides and proteins were tested for their ability to activate factor XII. 150 μg ml^−1 kaolin, an established activator of factor XII was used as positive control and solvent (H2O) as negative control. The conversion of Chromozym-PK was recorded kinetically at 37° C. for at least 60 minutes. Assays were done in duplicate. […] Alternatively, chromogenic substrate S-2222 (Chromogenix) was used to follow the activity of factor XII itself. With S-2222, activation of factor XII in plasma was measured, using 60% v/v plasma, diluted with substrate and H2O with or without potential cofactor. Furthermore, auto-activation of factor XII was measured by incubating 53 μg ml^−1 purified factor XII in 50 mM Tris-HCl buffer pH 7.5 with 1 mM EDTA and 0.001% v/v Triton-X100, with S-2222 and H2O with or without potential cofactor.
(§2) Formulated protein therapeutics were obtained from the local hospital pharmacy and were used as supplied by the manufacturers. […] Lyophilized therapeutics were dissolved according to the manufacturers recommendations. […] Other protein therapeutics were only kept at 4° C., and assayed for the presence of cross-β structure conformation at shown time points. Enhancement in fluorescence of ThT and Congo red was measured with all formulated protein therapeutics. For this purpose, proteins were diluted to the indicated concentrations. […] Zinc-insulin was diluted tenfold in the activation assay, GH was diluted to a final concentration of 500 μg ml^−1. Activation of factor XII and prekallikrein by the therapeutics was tested in the chromogenic factor XII assay (see above). […] After coating, plates were blocked with Blocking Reagent (Roche Diagnostics, Almere, The Netherlands).

The next data set concerns the target T3, human BiP (Homo sapiens, UniProt P11021).
T3 construct: made in house; host or cells: HEK293E cells, transient transfection, protein purified from the medium
Put plainly: ELISA, binding of BiP to coated (mis)folded proteins. To be noted: coated protein. Here is the method: (§3) The plates were blocked using Blocking reagent (Roche 1112589). A dilution series of the protein of interest was applied to the coated proteins and wells were subsequently washed using TBS-T (50 mM Tris pH 7.3, 150 mM NaCl and 0.1% Tween20). Bound protein is detected by the FLAG-tag using 1:3000 anti-FLAG-HRP (Sigma A-8592) in PBS-T, or by 1:1000 Ni-NTA-HRP (Qiagen 34530) in PBS-T. The HRP reaction Is performed using the TMB substrate (Biosource 4501103 or Tebu Bio 101TMB100-500), stopped using 10% H2SO4 and absorbance was measured at 450 nm.

A short description of data set [2]: Thioflavin T fluorescence. To be noted: 25 μg ml^−1. In kind it is physicochemical. The protocol: Fluorescence of ThT-protein/peptide adducts was measured as follows. […] Fluorescence was measured at 485 nm upon excitation at 435 nm. Background signals from buffer, buffer with ThT and protein/peptide solution without ThT were subtracted from corresponding measurements with protein solution incubated with ThT. […] Fluorescence was measured in triplicate on a Hitachi F-4500 fluorescence spectrophotometer (Ltd., Tokyo, Japan).
as §2
To prepare structurally altered ovalbumin (OVA) with amyloid cross-β structure conformation, purified OVA (Sigma, A-7641, lot 071k7094) was heated to 85° C. One mg ml^−1 OVA in 67 mM NaPi buffer pH 7.0, 100 mM NaCl, was heated for two cycles in PCR cups in a PTC-200 thermal cycler (MJ Research, Inc., Waltham, Mass., USA). In each cycle, OVA was heated from 30 to 85° C. at a rate of 5° C./min. Native OVA (nOVA) and heat-denatured OVA (dOVA) were tested in the ThT fluorescence assay and in the Plg-activation assay. In the fluorescence assay and in the Plg-activation assay, 25 and 100 μg ml^−1 nOVA and dOVA were tested, respectively. TEM images of nOVA and dOVA were taken to check for the presence of large aggregates. […] MSA (#126674, Calbiochem) was dissolved in 8 M urea, 100 mM Tris-HCl pH 8.2, at 10 mg ml^−1 final concentration. Dithiothreitol (DTT) was added to a final concentration of 10 mM. Air was replaced by N2 and the solution was incubated for 2 h at room temperature. Then, the solution was transferred to ice and iodoacetamide was added from a 1 M stock to a final concentration of 20 mM. […] Alkyl-MSA was dialyzed against H2O before use. […] In the ThT-fluorescence assay 25 μg ml^−1 nMSA and alkyl-MSA were tested, and in the Plg-activation assay 100 μg ml^−1 was tested. The presence of aggregates or fibrils was analyzed using TEM. […]
Protein therapeutics were obtained from the local hospital pharmacy and analyzed within the expiry limits as stated by the manufacturers.

The next data set concerns the target T4, tPA (Homo sapiens, UniProt P00750).
T4 construct: purchased Boehringer-Ingelheim (Actilyse, Alteplase)
Put plainly: Plasminogen-activation assay (tPA-mediated Plg to Pls, S-2251). In kind it is biochemical. To be noted: FIG. 6E, G. The protocol:
as §1, §2
Purification of β2-glycoprotein I (β2GPI) was performed according to established methods^11,12. Recombinant human β2GPI was made using insect cells and purified as described^11. Plasma derived β2GPI as used in a factor XII ELISA, the chromogenic Plg-activation assay and in the anti-phospholipid syndrome antibody ELISA (see below), was purified from fresh human plasma as described^12.
To prepare structurally altered ovalbumin (OVA) with amyloid cross-β structure conformation, purified OVA (Sigma, A-7641, lot 071k7094) was heated to 85° C. One mg ml^−1 OVA in 67 mM NaPi buffer pH 7.0, 100 mM NaCl, was heated for two cycles in PCR cups in a PTC-200 thermal cycler (MJ Research, Inc., Waltham, Mass., USA). In each cycle, OVA was heated from 30 to 85° C. at a rate of 5° C./min. Native OVA (nOVA) and heat-denatured OVA (dOVA) were tested in the ThT fluorescence assay and in the Plg-activation assay. In the fluorescence assay and in the Plg-activation assay, 25 and 100 μg ml^−1 nOVA and dOVA were tested, respectively. TEM images of nOVA and dOVA were taken to check for the presence of large aggregates. […] MSA (#126674, Calbiochem) was dissolved in 8 M urea, 100 mM Tris-HCl pH 8.2, at 10 mg ml^−1 final concentration.

The target in data set [3] is T5, human fibronectin finger 4,5 (Fn F4,5) fragment (Homo sapiens, UniProt P02751).
T5 construct: human fibronectin finger 4,5 (Fn F4,5) fragment; made in house; host or cells: HEK293E cells, transient transfection, protein purified from the medium
Put plainly: ELISA, binding of fibronectin F4,5 to coated (mis)folded proteins. The note with it: coated protein, FIG. 7D-H. Here is the method: as §3

T1 sequence (P02769 25-607): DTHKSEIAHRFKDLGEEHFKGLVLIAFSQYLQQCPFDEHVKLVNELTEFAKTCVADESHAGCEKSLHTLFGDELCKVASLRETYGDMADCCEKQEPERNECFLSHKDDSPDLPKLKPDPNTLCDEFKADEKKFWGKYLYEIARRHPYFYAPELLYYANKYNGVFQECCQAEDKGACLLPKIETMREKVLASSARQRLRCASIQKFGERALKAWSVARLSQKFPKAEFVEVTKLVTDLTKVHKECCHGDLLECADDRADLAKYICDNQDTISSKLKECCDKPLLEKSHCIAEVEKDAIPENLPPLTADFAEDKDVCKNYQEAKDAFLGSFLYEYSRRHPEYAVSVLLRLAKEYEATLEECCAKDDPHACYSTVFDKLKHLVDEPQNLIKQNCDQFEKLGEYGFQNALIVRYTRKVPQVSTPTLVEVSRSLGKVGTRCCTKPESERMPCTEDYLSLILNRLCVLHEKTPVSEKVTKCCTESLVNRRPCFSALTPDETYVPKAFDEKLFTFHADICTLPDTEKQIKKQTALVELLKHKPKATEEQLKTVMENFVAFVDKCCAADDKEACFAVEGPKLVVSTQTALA
T5 sequence (P02751 182-276 limits assumed): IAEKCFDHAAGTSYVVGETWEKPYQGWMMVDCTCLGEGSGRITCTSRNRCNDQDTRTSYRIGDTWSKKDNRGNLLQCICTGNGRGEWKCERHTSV
T3 sequence (P11021 19-654): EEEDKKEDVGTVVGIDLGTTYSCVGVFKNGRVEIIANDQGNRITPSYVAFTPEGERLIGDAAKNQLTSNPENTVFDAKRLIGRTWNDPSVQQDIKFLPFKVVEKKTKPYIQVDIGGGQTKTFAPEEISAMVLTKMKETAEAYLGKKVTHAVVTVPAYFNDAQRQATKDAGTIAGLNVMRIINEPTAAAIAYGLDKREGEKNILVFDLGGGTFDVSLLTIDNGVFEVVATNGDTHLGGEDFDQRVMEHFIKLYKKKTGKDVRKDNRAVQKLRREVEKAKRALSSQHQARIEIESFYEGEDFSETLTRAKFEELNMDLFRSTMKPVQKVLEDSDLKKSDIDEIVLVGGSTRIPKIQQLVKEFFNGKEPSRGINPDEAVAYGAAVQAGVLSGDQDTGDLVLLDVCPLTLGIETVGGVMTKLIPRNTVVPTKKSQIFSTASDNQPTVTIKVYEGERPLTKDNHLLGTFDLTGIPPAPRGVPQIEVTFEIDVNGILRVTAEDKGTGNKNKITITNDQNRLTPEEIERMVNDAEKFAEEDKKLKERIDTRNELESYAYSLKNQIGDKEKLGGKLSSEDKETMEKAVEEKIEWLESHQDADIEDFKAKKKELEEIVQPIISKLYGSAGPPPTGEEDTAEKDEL
T4 sequence (P00750 36-562): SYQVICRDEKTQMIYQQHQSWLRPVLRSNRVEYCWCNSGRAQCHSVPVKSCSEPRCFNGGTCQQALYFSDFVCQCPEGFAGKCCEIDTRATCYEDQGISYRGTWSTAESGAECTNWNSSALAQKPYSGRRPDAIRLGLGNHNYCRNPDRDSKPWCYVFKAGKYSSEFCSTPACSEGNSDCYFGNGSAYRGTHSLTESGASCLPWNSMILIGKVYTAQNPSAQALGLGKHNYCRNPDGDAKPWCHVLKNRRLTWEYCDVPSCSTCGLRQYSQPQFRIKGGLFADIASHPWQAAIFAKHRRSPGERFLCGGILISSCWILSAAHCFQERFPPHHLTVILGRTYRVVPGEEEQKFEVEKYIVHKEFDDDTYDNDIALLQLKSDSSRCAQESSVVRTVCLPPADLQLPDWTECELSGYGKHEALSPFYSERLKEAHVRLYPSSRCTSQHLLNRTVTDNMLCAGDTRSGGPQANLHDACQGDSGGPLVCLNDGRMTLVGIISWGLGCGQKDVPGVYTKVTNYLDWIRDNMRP

As for `Nc1c(/N=N/c2ccc(-c3ccc(/N=N/c4cc(S(=O)(=O)O)c5ccccc5c4N)cc3)cc2)cc(S(=O)(=O)O)c2ccccc12` [Congo red], the “influence on binding of LRP cl-IV to BSA-AGE” value (from here on “influence on binding”) in data set [1] is “inhibit binding of LRP cl-IV to BSA-AGE to a large extent”.

For the molecule `CC[C@H](C)[C@H](NC(=O)CNC(=O)[C@@H](NC(=O)[C@H](CC(=O)O)NC(=O)[C@@H](NC(=O)[C@H](CC(=O)O)NC(=O)[C@@H](NC(=O)[C@H](CCC(=O)O)NC(=O)[C@H](CC(C)C)NC(=O)[C@H](CCCNC(=N)N)NC(=O)[C@@H](N)CCCCN)C(C)C)[C@@H](C)CC)[C@@H](C)CC)C(=O)N[C@@H](CCCNC(=N)N)C(=O)N[C@@H](CO)C(=O)O` [FP13 K157G] (H-KRLEVDIDIGIRS-OH), on factor XII, the “factor XII activation (kallikrein, Chromozym-PK conversion)” value is “stimulate the activation of factor XII”.

`Cc1ccc2c(c1)sc(-c1ccc(N(C)C)cc1)[n+]2C` [ThT, Thioflavin T]: the “influence on binding” value in data set [1] was “do not interfere”.

As for Thioflavin S [ThS], the “influence on binding” value in data set [1] is recorded as “inhibit binding of LRP cl-IV to BSA-AGE to a large extent”.

Regarding “heat-denatured BSA: heat-denatured bovine serum albumin”, the “binding of BiP (detection anti-FLAG-HRP)” value with human BiP was “not”.

In the case of “heat-denatured glucagon: glucagon kept at 37° C. at low pH in HCl”, the “ThT fluorescence enhancement of native and denatured proteins” value in data set [2] is listed as “enhanced ThT fluorescence to a large extent”. For the same molecule, in the data set with tPA, the “tPA activating potential of native and denatured glucagon and Etanercept” value is on record as “potent activator of tPA”.

With mIAPP: non-amyloid control peptide, the “factor XII activation (kallikrein, Chromozym-PK conversion)” value in the data set with factor XII is on record as “do not activate factor XII”.

Take “reduced and alkylated lysozyme: reduced and alkylated lysozyme”: the “affinity of fibronectin F4,5 (detection anti-FLAG HRP)” value in data set [3] is “high affinity”.
